# Substitutions are numbered along the chain they refer to. Names may count otherwise.
# T1: NCgl2478 (Corynebacterium glutamicum, UniProt Q8NMK6, C24S)
# T1 construct: gene Cgl2567; full-length, N-terminal His6 from pET28a, E. coli BL21(DE3); tag cut with enterokinase for activity assays
# T1 sequence (Q8NMK6 1-245 C24S): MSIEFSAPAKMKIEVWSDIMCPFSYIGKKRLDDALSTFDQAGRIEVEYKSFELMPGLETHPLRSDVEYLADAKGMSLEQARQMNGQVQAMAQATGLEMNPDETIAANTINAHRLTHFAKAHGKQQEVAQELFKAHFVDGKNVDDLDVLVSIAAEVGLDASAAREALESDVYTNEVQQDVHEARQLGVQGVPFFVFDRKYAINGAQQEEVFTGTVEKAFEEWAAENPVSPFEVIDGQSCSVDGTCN
# B1: NCgl2478 (Corynebacterium glutamicum ATCC 13032) (protein)
# chain: T1 sequence (Q8NMK6 1-245 C24S) with S24C
# notes: full-length, N-terminal His6 from pET28a, E. coli BL21(DE3); tag cut with enterokinase for activity assays
# B2: Mrx1 (Corynebacterium glutamicum ATCC 13032) (protein)
# chain: MSNVTIYATDWCPYCRSLLKGLDGQEYDLIDVDQDEEAGEWVKSVNDGNRIVPTVRYSDGTHATNPLAAEVIAKIEALA
# notes: pET28a-mrx1, N-terminal His6, E. coli BL21(DE3); tag cut for activity assays
# B3: NCgl2478 (Corynebacterium glutamicum ATCC 13032; C24S) (protein)
# chain: T1 sequence (Q8NMK6 1-245 C24S)
# notes: as for B1
# Tests used:
# Cys24 = experiment: UV-vis; conditions: 10 °C; poly-buffer: 10 mM sodium acetate, 10 mM sodium phosphate, 10 mM sodium borate, 10 mM sodium citrate, starting pH 9.4, titrated with 100 mM HCl; 20 μM protein; reduced protein, referenced to the oxidized protein (Cys mutants oxidized with tenfold excess H2O2); no ligand
# Cys21 = experiment: UV-vis; conditions: 10 °C; poly-buffer: 10 mM sodium acetate, 10 mM sodium phosphate, 10 mM sodium borate, 10 mM sodium citrate, starting pH 9.4, titrated with 100 mM HCl; 20 μM protein; reduced protein, referenced to the oxidized protein (Cys mutants oxidized with tenfold excess H2O2); no ligand
# NCgl2478 = target: T1, NCgl2478; experiment: NBD-Cl labelling and DTNB thiol count after H2O2 with MSH; type: binding; conditions: covalent; mixed disulfide at Cys21 formed from the H2O2-oxidised sulfenic acid
# purified protein = substrate: CC(=O)N[C@@H](CSSCCO)C(=O)N[C@H]1[C@@H](O[C@@H]2[C@H](O)[C@H](O)[C@@H](O)[C@H](O)[C@H]2O)O[C@H](CO)[C@@H](O)[C@@H]1O; experiment: purified protein; type: biochemical, Corynebacterium glutamicum; conditions: 500 μM MSH, 5 μM Mtr, 250 μM NADPH, 50 mM potassium phosphate pH 7.6, 25 °C, substrate formed in situ from HED and MSH
Molecule,pKa (Cys24),pKa (Cys21),NBD-Cl labelling and DTNB thiol count after H2O2 with MSH (NCgl2478),Km (purified protein) [µM],kcat (purified protein) [s⁻¹]
"NCgl2478 (DsbA-like mycoredoxin / mycothiol-dependent thiol-disulfide reductase, annotated dithiol-disulfide isomerase DsbA) (Corynebacterium glutamicum (RES167, derived from ATCC 13032))",8.09,less than 6,–,–,–
"CC(=O)N[C@@H](CS)C(=O)NC1[C@@H](O[C@@H]2[C@H](O)[C@H](O)[C@@H](O)[C@H](O)[C@H]2O)O[C@H](CO)[C@@H](O)[C@@H]1O (stereo partly drawn) [MSH, 1D-myo-inosityl-2-[N-acetyl-L-cysteinyl] amido-2-deoxy-α-D-glucopyranoside]",–,–,MSH reacted with NCgl2478:C24S–SOH to form NCgl2478:C24S–SSM,–,–
B1,–,–,–,510 ± 50,8.55 ± 0.19
B2,–,–,–,540 ± 110,103.81 ± 3.14
B3,–,–,–,460 ± 50,11.37 ± 0.31
